Literature values, collected in paper PMC5615855.

Target: N2B (HEB) N2B (Homo sapiens) (UniProt Q99081)

- Kd: 356 µM
Substance: NHR2 (AML1-ETO) NHR2 (from UniProt Q06455)
